The values below come from the DeepSol protein solubility set.

This data set in a line: soluble on expression in E. coli; label from the status in PepcDB or PDB records.
As to “MGSDKIHHHHHHMKKVRAAIVGYGNIGHYVLEALQAAPDFEIAGVVRRAGAENKPEELANYAVVKDIKELEGVEVAILCTPTRSVEKYAKEYLAMGINTVDSFDIHTGIVDLRRTLDATAKEHKAVSIISAGWDPGSDSIVRTMLEAIAPKGITYTNFGPGMSMGHTVAVKAIDGVKAALSMTIPTGTGIHRRMVYIELKDGYKFEEVAAAIKADPYFVNDETHVKLVPSVDALLDMGHGVNLTRKGVSGKTQNQLFEFNMRINNPALTAQVLVCVARASMKQQPGCYTMVEVPVIDLLPGDREEWIGHLV”, the “soluble on expression in E. coli” value is listed as “not soluble”.

For the sequence “MGSDKIHHHHHHMDDQLNALRDLAIPFPITASFRQQARAYASQYFTQDTHERVYLNTLAVLVANAYFRLLNFQTNLTKAERWNAACRVWSEANEIELVGLGNLECRVITAGQQTIILPPETWADRIGYLFVEITSSEKVATLIGFLPAFDAETSGEEVAISTTGYAYADLKSMDEAMDYLTQQEASARSKTGEIDNLTRDFAAKKITYLRNWLNNVYDSDWEPAMRELSAATCKKKIQLVGQVFEMQLSVSQSNGAITVTVIVRLESGFLPIGIQVSVPDESEIYTETVSTPADLIRIPLEFSPGEEFWVELRWGETFTREYFIA”, the “soluble on expression in E. coli” value was “not soluble”.

Turning to “MGSDKIHHHHHHMTFLRALLGATGQTLRAALAGLTVKPHSGHPVFPVTWVTPHIAAGPAPVSAAHLEALREQGIVAILNVCEELCTLADTEEAAGFEVRFLPIEDEGAPEPDALEEVLDWLDESVWRGRKVYVHCRWGVGRTGTVLHAYLLRRGLSPRRAEHFLSRLRSRPTSYTQWRSLRRFARRNPALTVREAAVEPGVADAMTPVLRDLARLVQEVERHVEAATPGISPEAFADAPRCGRDHVRCCATPPTLTLAEAAALTAAMDALLSSTQRDELRQKTSRGSGVPCPLLHDQRCLLYEARPLRCRTADMDETARLRLLEEVVADTLDDLDRRVFGLLAGCTPATSPPCFPIVEVLSGRYVATTFRHVACGLNTGKP”, the “soluble on expression in E. coli” value was “not soluble”.

With “SHKLPSGPPMHHFNSRYSETGCVGMQIRDAHEENPESILDEHVQRVMKTPGCQSPGTGRHSPKSRSPDGH”, the “soluble on expression in E. coli” value is on record as “soluble”.

Turning to “MELEFKCSDVGVWKEALSSYDSRIESLNKPELVSLDQFYRIKLPCLLHDRDPNPYLTTSELSQLMKWKLSRGKWRPRLLDFVSSLDDSVVKSASEKAFKSLPDISKAVKELTVLKGVGAATASAVLAAYAPDIAPFMSDEAMEVALGNSKDYSLKQYLLFATKLQDKAKELKLKGEWDGPSDIERALWSCTVRAKSQPEKSSSGKKRKR”, the “soluble on expression in E. coli” value is on record as “not soluble”.

With “MSERAPLVIIGTGLAGYNLAREWRKLDGETPLLMITADDGRSYSKPMLSTGFSKNKDADGLAMAEPGAMAEQLNARILTHTRVTGIDPGHQRIWIGEEEVRYRDLVLAWGAEPIRVPVEGDAQDALYPINDLEDYARFRQAAAGKRRVLLLGAGLIGCEFANDLSSGGYQLDVVAPCEQVMPGLLHPAAAKAVQAGLEGLGVRFHLGPVLASLKKAGEGLEAHLSDGEVIPCDLVVSAVGLRPRTELAFAAGLAVNRGIVVDRSLRTSHANIYALGDCAEVDGLNLLYVMPLMACARALAQTLAGNPSQVAYGPMPVTVKTPACPLVVSPPPRGMDGQWLVEGSGTDLKVLCRDTAGRVIGYALTGAAVNEKLALNKELPGLMA”, the “soluble on expression in E. coli” value is “soluble”.

For the sequence LPPGWQSYLSPQGRRYYVNTTTNETTWERPSSS, the “soluble on expression in E. coli” value is “soluble”.

Consider “MGSDKIHHHHHHMTELHREAFDYAPNMRRLRAVIAVAEAGSVMRAAEALHLSQPAVTRAVRDLEKELGLALFERHRSGMLCTTAGKIVLHRFRRALQQLIEAETALARLHPEGNFERLPQRLSHRQLTVLVAVADLHNEPLAAKRLGLTQPAVSGNLRDLERLLGIALFLRTQRGMLATDGGAVLIRHAKMALRELSLVSDDLSAWQGEVRGRVVIGTLPLSSSLLVPHAVDALLRELPGLNVTIIEGTYDALFESLRHGEIDILIGALRQAGTSEDTHQQRLFHDRLAVAARQGHPLMKHAALQLSDLLDAQWIAPRQGTPARVSFEQEFRSAGLQPPSVVVESGNLSTIRTLLLDSDRVTLVSPHQVFFEVQSGQLALLPIKLTGTLRPIGITTRADDSPTQALKVLKDILLTLGERMADPSSATRA”, for which the “soluble on expression in E. coli” value is listed as “not soluble”.

On to “MHHHHHHSSGRENLYFQGERVFGCDLGEHLLNSGFEVPQVLQSCTAFIERYGIVDGIYRLSGVASNIQRLRHEFDSEHVPDLTKEPYVQDIHSVGSLCKLYFRELPNPLLTYQLYEKFSDAVSAATDEERLIKIHDVIQQLPPPHYRTLEFLMRHLSLLADYCSITNMHAKNLAIVWAPNLLRSKQIESACFSGTAAFMEVRIQSVVVEFILNHVDVLFSGRISMAMQE”, for which the “soluble on expression in E. coli” value is given as “soluble”.

Regarding “MGSDKIHHHHHHMKHAFLIIAHNEYPVLEVLLSMLDDERNDIYLHIDKRATELFQQIKKVKMQKAGFYLIENPIKVYWGDISQVQVEYLLFETALSHGPYAYYHLLSGTDLPIKSQDYIHAFFQQNAGKEFVGFWQDAAHQRDLERKVFRYYFFTKRLKDKEHLLHGITALIRNLILAVQKISHYRRKQTFEFKKGGNWISITENAVKYLLQYKEIVLNRMKYTLCADEIFIQTILWNSPFRERMHCTNNANTGSMREIDWEHGSPYIWQDHDYQTLINSNKIFARKFNSNQMGVVYKIQKLYLKQVPK”, the “soluble on expression in E. coli” value is “not soluble”.

As to “MIVEPMTKPRKPTVQRCQSFFTNGANHFYCKKSTHDGGRTHNLLIRSQTRCHYATRATVCWKFSIINKYIPTLANITITTLRKLYKRFIDRESLFLIFFRKDEHIVQNIIN”, the “soluble on expression in E. coli” value is given as “soluble”.

Consider “MESPNMRKRLIEMESSLEVKKTATTVKQEPLETSSPLLASMISTAPNPPPTSPHALNYLTLLAAFRQFLHGYIQAGGDENLANTLGNYVAALPMPPNSLNPIGPLNAPKSPFKQQQKFHSIIKAVKREPVSEPAQNAGSGDSSVTLSSALGEDAVPQNRGSCTSMKPVPRFVMLPVVAAQSASPSASGPTSEIQQLREAAFGRYKNVLCVICNEWICSRNRKNHIEAHLNYRPYKCSACSYARRREIFVDQHIRTQHKGVEGVVMLSDVDLHVAMEVDRLAEECVTRTRKIIDTMQEKKDGDFGENKDFDEKALQMMLAEEAENKVVVIESVSQVRPKVANYHRRQRTKVLKKIYDTDVAKQTELKIVKDEEGGVPTMSIKLEEGFEINLEDLMKMVGAGSSITDSNEPGPSEIKKELAEV”, for which the “soluble on expression in E. coli” value is “not soluble”.

As to “MSLAPIRLALIEGLSGPFANAGEAVDRNLRIAIEGVNARGGVRLPDGRHPLALVRFDSKNMVDESLLQLQAASDAGIRFVLQGNSSAAAAALSASIARHNDRAPDARMLFLNYAAVDPALTNEACSFWHFRFDASADMRMHALTEVIRADPSVKQVYLIGQDYTFGRQVAQLARRQLGEKRPDIAIAGEVLHPIGKVKDFAPYVARIAASGADAVITGNWGNDLTLLVKAARDAGLKARFFTFYGNSLGAPGAMGEAGVGRVVAVAEWHPNLGGTGSDAFYKAFRARYPAPVDDYPLLRDQMMIDLLATAIERAGTTEAGAVARALEGASLDTGFHRLTLRAEDHQAIQPLVVMQMARAGTPGAPFDIEGSGYGFRTLKVIPPAQTALPTTCRMARYEGHHHHHH”, the “soluble on expression in E. coli” value is listed as “soluble”.

“MAQALWTRNKSEITDEEYKEFYKHIAHDFNDPLTWSHNRVEGKQEYTSLLYIPSQAPWDMWNRDHKHGLKLYVQRVFIMDDAEQFMPNYLRFVRGLIDSSDLPLNVSREILQDSTVTRNLRNALTKRVLQMLEKLAKDDAEKYQTFWQQFGLVLKEGPAEDFANQEAIAKLLRFASTHTDSSAQTVSLEDYVSRMKEGQEKIYYITADSYAAAKSSPHLELLRKKGIEVLLLSDRIDEWMMNYLTEFDGKPFQSVSKVDESLEKLADGDLGTLVPRGSMAISDPNSSSVDKLAAALEHHHHHH”: the “soluble on expression in E. coli” value is given as “soluble”.

For “MFPLNDLSLKTQPVQLNKVTSNTESTIKQHELVSDDAIINELSSELVSCLGNGKFTPISEDSKLFNMLSEFKLLHSEYFEWGDYSLWFQDFSIYNKIGFIMIEKIRELVTHPFGINLEHHHHHH”, the “soluble on expression in E. coli” value is listed as “not soluble”.

For the sequence “MKKIEVDLVRTKVYNLLKEMILNHELKLGEKLNVRELSEKLGISFTPVRDALLQLATEGLVKVVPRVGFFVTDVDEKFIRETIETRIMMEVFCLENYFDKIAGSEELLEIKGEIDDVEKSAKREIFDDSDERLHKLFIRASGNELIISLYEKIWDRIDLVRHLNERYVVSNREHKELIERIISGDKEGAIEKLKEHLKNVEAETIKNLYTYERS”, the “soluble on expression in E. coli” value is given as “soluble”.

Take “MGSDKIHHHHHHVYQDLSRFSMPADFRGKPGWYVQLWWVVQALLFHPSPQIMYGWRRLLLRAFGAQIGKGVIIRPSAQITYPWKLAIGDYAWIGDEVVLYTLGNITIGKNAVVSQRSYICTGSHDFKKEAFDIFSKPIIIDDECWLATDVFVGPGVKISKGIVIGARSSVYKNIEATPGIYTGNPATRVGDR”: the “soluble on expression in E. coli” value is listed as “not soluble”.

For “MSLATVPTRSGSPRQLTTKQTGDAWEAQARRWLEGKGLRFIAANVNERGGEIDLIMREGRTTVFIEVRYRRSALYGGAAASVTRSKQHKLLQTARLWLARHNGSFDTVDCRFDVVAFTGNEVEWIKDAFNDHSEGHHHHHH”, the “soluble on expression in E. coli” value is reported as “soluble”.

“MGSDKIHHHHHHMSKPAYLVEADGVNITKQIADRLLSLTVVDEAEQLSDRVEIVLDDRDKLLEIPKSGTWLKVYLGYAEGGKLPVYMGTYAVDDLTLSNGPRSMVVRATALETAPAMKDSRTQSWHDTTLGEIARTIASRSGLELRIVGDVGSIPIKHEDQTAESDIAFLTRLARRLKITAKPIDKALWITRRASDIPATPGVELAQRIVKGDEVSDWRATIKNRGAYSRVKARYFDQDEKKEKLLTVGPEDGNLQTFEEKQLYKTRDEAQRAADSRLQSLQSGEVTIDFSMEGDPEFTAEGQVTLQDFRALVDGTWYIRNVTHKFDGNGYRTTVTCGTKGEANNDWSAGRGENDKRSASEKGSLLCKTAQQLRGFSTQGGPDGGRNACVWAVNRVFQKAGLTTPWGGSNYVPDAEAALRRSGAQQVSGPEPGAIAIFTDGGNPPQAHIGIVTCDGGRVISNSSSRPTRTRLASPSEYQGFYSGPIRYYRLK”: the “soluble on expression in E. coli” value is reported as “not soluble”.

As for “MSKIIGSDRVKRGMAEMQKGGVIMDVVNAEQARIAEEAGAVAVMALERVPSDIRAAGGVARMANPKIVEEVMNAVSIPVMAKARIGHITEARVLEAMGVDYIDESEVLTPADEEYHLRKDQFTVPFVCGCRNLGEAARRIGEGAAMLRTKGEPGTGNIVEAVRHMRQVNSEVSRLTVMNDDEIMTFAKDIGAPYEILKQIKDNGRLPVVNFAAGGVATPQDAALMMELGADGVFVGSGIFKSEDPEKFAKAIVQATTHYQDYELIGRLASELGTAMKGLDINQLSLEERMQERGWMAGDPLEHHHHHH”, the “soluble on expression in E. coli” value is on record as “not soluble”.

Consider “MGSDKIHHHHHHMSTLRLLISDSYDPWFNLAVEECIFRQMPATQRVLFLWRNADTVVIGRAQNPWKECNTRRMEEDNVRLARRSSGGGAVFHDLGNTCFTFMAGKPEYDKTISTSIVLNALNALGVSAEASGRNDLVVKTVEGDRKVSGSAYRETKDRGFHHGTLLLNADLSRLANYLNPDKKKLAAKGITSVRSRVTNLTELLPGITHEQVCEAITEAFFAHYGERVEAEIISPNKTPDLPNFAETFARQSSWEWNFGQAPAFSHLLDERFTWGGVELHFDVEKGHITRAQVFTDSLNPAPLEALAGRLQGCLYRADMLQQECEALLVDFPEQEKELRELSAWMAGAVR”, for which the “soluble on expression in E. coli” value was “not soluble”.

For the sequence “MGHHHHHHSHMAERETETSNSESKQDKAASSKEKNGCNANSFEGSSTTKSEESITVSDKENETCLADQETGSKNIVSCDSNIGADKVEKKKQIQHVCQEMELKMCQSSENIILSDQIKDHNSSEARFSSKNIKDLRLASDNVSIDQFLRKRHEPESVSSDVSEQGSIHLEPLTPSEVLEYEATEILQKGSGDPSAKTDEVVSDQTDDIPGGNNPSTTEATVDLEDEKERS”, the “soluble on expression in E. coli” value was “soluble”.
